Measured values published in PMC13397619.

B1: NLV3 TCR beta chain (CDR3β only) (parent)
chain: ASSPTGGSPSPLH
partner: NLCPMVATV
B2: NLV3 TCR beta chain (CDR3β only) (parent)
chain: ASSPTGGSPSPLH
partner: MLVPMVATV

Variants of: B1
Assay: T-Switch: Jurkat TCRβ−/− cells expressing a CDR3 saturation-mutagenesis library, stained with two peptide-HLA-A*02:01 tetramers (original and novel peptide) plus anti-CD3, FACS-sorted into four gates, gDNA sequenced
Conditions: with HLA-A*02:01 with peptide … (NLV 2-1, the novel peptide), tetramers 1 µg/mL, 30 min on ice, SP, DP and SW gates expanded about 10 days between rounds ('two to three rounds of selection' in the Methods), gate SW: higher = more of the variant in the gate that binds the novel peptide and not the original one = switched binding. Fold enrichment of the CDR3 variant in one FACS gate of a two-tetramer stain, unresolved parent, parent is a CDR3 fragment, zero in all gates, scale: fold enrichment, numbering: sequential-on-construct, …

| Variant | enrichment |
| --- | --- |
| […] (CDR3 as printed); G7P derived by comparing it with the table's wild-type CDR3 ASSPTGGSPSPLH | 0 |
| […] (CDR3 as printed); S2L derived by comparing it with the table's wild-type CDR3 ASSPTGGSPSPLH | 0 |

Variants of: B2
Assay: as above
Conditions: with HLA-A*02:01 with peptide … (NLV 3-1, the original bait), tetramers 1 µg/mL, 30 min on ice, DP and SW gates expanded about 10 days between rounds ('two to three rounds of selection' in the Methods), gate SP: higher = more of the variant in the gate that binds the original peptide and not the novel one = retained original binding. Fold enrichment of the CDR3 variant in one FACS gate of a two-tetra, unresolved parent, parent is a CDR3 fragment, scale: fold enrichment, numbering: sequential-on-construct, sequence …

| Variant | enrichment |
| --- | --- |
| […] (CDR3 as printed); A1C derived by comparing it with the table's wild-type CDR3 ASSPTGGSPSPLH | 1.12 |
| […] (CDR3 as printed); A1D derived by comparing it with the table's wild-type CDR3 ASSPTGGSPSPLH | 0 |
| […] (CDR3 as printed); A1E derived by comparing it with the table's wild-type CDR3 ASSPTGGSPSPLH | 0 |
| […] (CDR3 as printed); A1F derived by comparing it with the table's wild-type CDR3 ASSPTGGSPSPLH | 0 |
| […] (CDR3 as printed); A1G derived by comparing it with the table's wild-type CDR3 ASSPTGGSPSPLH | 5.7 |
| […] (CDR3 as printed); A1H derived by comparing it with the table's wild-type CDR3 ASSPTGGSPSPLH | 0 |
| […] (CDR3 as printed); A1I derived by comparing it with the table's wild-type CDR3 ASSPTGGSPSPLH | 0 |
| […] (CDR3 as printed); A1K derived by comparing it with the table's wild-type CDR3 ASSPTGGSPSPLH | 0 |
| […] (CDR3 as printed); A1L derived by comparing it with the table's wild-type CDR3 ASSPTGGSPSPLH | 0 |
| […] (CDR3 as printed); A1M derived by comparing it with the table's wild-type CDR3 ASSPTGGSPSPLH | 0 |
| […] (CDR3 as printed); A1N derived by comparing it with the table's wild-type CDR3 ASSPTGGSPSPLH | 0 |
| […] (CDR3 as printed); A1P derived by comparing it with the table's wild-type CDR3 ASSPTGGSPSPLH | 0 |
| […] (CDR3 as printed); A1Q derived by comparing it with the table's wild-type CDR3 ASSPTGGSPSPLH | 0 |
| […] (CDR3 as printed); A1R derived by comparing it with the table's wild-type CDR3 ASSPTGGSPSPLH | 0 |
| […] (CDR3 as printed); A1S derived by comparing it with the table's wild-type CDR3 ASSPTGGSPSPLH | 4.29 |
| […] (CDR3 as printed); A1T derived by comparing it with the table's wild-type CDR3 ASSPTGGSPSPLH | 0 |
| […] (CDR3 as printed); A1V derived by comparing it with the table's wild-type CDR3 ASSPTGGSPSPLH | 0.479 |
| […] (CDR3 as printed); A1W derived by comparing it with the table's wild-type CDR3 ASSPTGGSPSPLH | 0 |
| […] (CDR3 as printed); A1Y derived by comparing it with the table's wild-type CDR3 ASSPTGGSPSPLH | 0 |
| […] (CDR3 as printed); G6A derived by comparing it with the table's wild-type CDR3 ASSPTGGSPSPLH | 8.12 |
| […] (CDR3 as printed); G6C derived by comparing it with the table's wild-type CDR3 ASSPTGGSPSPLH | 0 |

| Variant | enrichment |
| --- | --- |
| […] (CDR3 as printed); G6D derived by comparing it with the table's wild-type CDR3 ASSPTGGSPSPLH | 0.39 |
| […] (CDR3 as printed); G6E derived by comparing it with the table's wild-type CDR3 ASSPTGGSPSPLH | 0 |
| […] (CDR3 as printed); G6F derived by comparing it with the table's wild-type CDR3 ASSPTGGSPSPLH | 0 |
| […] (CDR3 as printed); G6H derived by comparing it with the table's wild-type CDR3 ASSPTGGSPSPLH | 0 |
| […] (CDR3 as printed); G6I derived by comparing it with the table's wild-type CDR3 ASSPTGGSPSPLH | 0 |
| […] (CDR3 as printed); G6K derived by comparing it with the table's wild-type CDR3 ASSPTGGSPSPLH | 0 |
| […] (CDR3 as printed); G6L derived by comparing it with the table's wild-type CDR3 ASSPTGGSPSPLH | 0 |
| […] (CDR3 as printed); G6M derived by comparing it with the table's wild-type CDR3 ASSPTGGSPSPLH | 0 |
| […] (CDR3 as printed); G6N derived by comparing it with the table's wild-type CDR3 ASSPTGGSPSPLH | 0 |
| […] (CDR3 as printed); G6P derived by comparing it with the table's wild-type CDR3 ASSPTGGSPSPLH | 0 |
| […] (CDR3 as printed); G6Q derived by comparing it with the table's wild-type CDR3 ASSPTGGSPSPLH | 0 |
| […] (CDR3 as printed); G6R derived by comparing it with the table's wild-type CDR3 ASSPTGGSPSPLH | 0 |
| […] (CDR3 as printed); G6S derived by comparing it with the table's wild-type CDR3 ASSPTGGSPSPLH | 10.5 |
| […] (CDR3 as printed); G6T derived by comparing it with the table's wild-type CDR3 ASSPTGGSPSPLH | 0.64 |
| […] (CDR3 as printed); G6V derived by comparing it with the table's wild-type CDR3 ASSPTGGSPSPLH | 0 |
| […] (CDR3 as printed); G6W derived by comparing it with the table's wild-type CDR3 ASSPTGGSPSPLH | 0 |
| […] (CDR3 as printed); G6Y derived by comparing it with the table's wild-type CDR3 ASSPTGGSPSPLH | 0 |
| […] (CDR3 as printed); G7A derived by comparing it with the table's wild-type CDR3 ASSPTGGSPSPLH | 0 |
| […] (CDR3 as printed); G7C derived by comparing it with the table's wild-type CDR3 ASSPTGGSPSPLH | 0 |
| […] (CDR3 as printed); G7D derived by comparing it with the table's wild-type CDR3 ASSPTGGSPSPLH | 0 |
| […] (CDR3 as printed); G7E derived by comparing it with the table's wild-type CDR3 ASSPTGGSPSPLH | 0.336 |

| Variant | enrichment |
| --- | --- |
| […] (CDR3 as printed); G7F derived by comparing it with the table's wild-type CDR3 ASSPTGGSPSPLH | 0 |
| […] (CDR3 as printed); G7H derived by comparing it with the table's wild-type CDR3 ASSPTGGSPSPLH | 0 |
| […] (CDR3 as printed); G7I derived by comparing it with the table's wild-type CDR3 ASSPTGGSPSPLH | 0 |
| […] (CDR3 as printed); G7K derived by comparing it with the table's wild-type CDR3 ASSPTGGSPSPLH | 0 |
| […] (CDR3 as printed); G7L derived by comparing it with the table's wild-type CDR3 ASSPTGGSPSPLH | 0 |
| […] (CDR3 as printed); G7M derived by comparing it with the table's wild-type CDR3 ASSPTGGSPSPLH | 0 |
| […] (CDR3 as printed); G7N derived by comparing it with the table's wild-type CDR3 ASSPTGGSPSPLH | 0 |
| […] (CDR3 as printed); G7Q derived by comparing it with the table's wild-type CDR3 ASSPTGGSPSPLH | 0 |
| […] (CDR3 as printed); G7R derived by comparing it with the table's wild-type CDR3 ASSPTGGSPSPLH | 0 |
| […] (CDR3 as printed); G7S derived by comparing it with the table's wild-type CDR3 ASSPTGGSPSPLH | 0 |
| […] (CDR3 as printed); G7T derived by comparing it with the table's wild-type CDR3 ASSPTGGSPSPLH | 0 |
| […] (CDR3 as printed); G7V derived by comparing it with the table's wild-type CDR3 ASSPTGGSPSPLH | 0 |
| […] (CDR3 as printed); G7W derived by comparing it with the table's wild-type CDR3 ASSPTGGSPSPLH | 0 |
| […] (CDR3 as printed); G7Y derived by comparing it with the table's wild-type CDR3 ASSPTGGSPSPLH | 4.27 |
| […] (CDR3 as printed); H13A derived by comparing it with the table's wild-type CDR3 ASSPTGGSPSPLH | 6.12 |
| […] (CDR3 as printed); H13C derived by comparing it with the table's wild-type CDR3 ASSPTGGSPSPLH | 6.06 |
| […] (CDR3 as printed); H13D derived by comparing it with the table's wild-type CDR3 ASSPTGGSPSPLH | 8.55 |
| […] (CDR3 as printed); H13E derived by comparing it with the table's wild-type CDR3 ASSPTGGSPSPLH | 4.01 |
| […] (CDR3 as printed); H13F derived by comparing it with the table's wild-type CDR3 ASSPTGGSPSPLH | 4.3 |
| […] (CDR3 as printed); H13G derived by comparing it with the table's wild-type CDR3 ASSPTGGSPSPLH | 0.848 |
| […] (CDR3 as printed); H13I derived by comparing it with the table's wild-type CDR3 ASSPTGGSPSPLH | 11.3 |

| Variant | enrichment |
| --- | --- |
| […] (CDR3 as printed); H13K derived by comparing it with the table's wild-type CDR3 ASSPTGGSPSPLH | 3.5 |
| […] (CDR3 as printed); H13L derived by comparing it with the table's wild-type CDR3 ASSPTGGSPSPLH | 5.69 |
| […] (CDR3 as printed); H13M derived by comparing it with the table's wild-type CDR3 ASSPTGGSPSPLH | 6.07 |
| […] (CDR3 as printed); H13N derived by comparing it with the table's wild-type CDR3 ASSPTGGSPSPLH | 7.17 |
| […] (CDR3 as printed); H13P derived by comparing it with the table's wild-type CDR3 ASSPTGGSPSPLH | 0 |
| […] (CDR3 as printed); H13Q derived by comparing it with the table's wild-type CDR3 ASSPTGGSPSPLH | 5.02 |
| […] (CDR3 as printed); H13R derived by comparing it with the table's wild-type CDR3 ASSPTGGSPSPLH | 4.99 |
| […] (CDR3 as printed); H13S derived by comparing it with the table's wild-type CDR3 ASSPTGGSPSPLH | 7.33 |
| […] (CDR3 as printed); H13T derived by comparing it with the table's wild-type CDR3 ASSPTGGSPSPLH | 5.47 |
| […] (CDR3 as printed); H13V derived by comparing it with the table's wild-type CDR3 ASSPTGGSPSPLH | 5.71 |
| […] (CDR3 as printed); H13W derived by comparing it with the table's wild-type CDR3 ASSPTGGSPSPLH | 8.46 |
| […] (CDR3 as printed); H13Y derived by comparing it with the table's wild-type CDR3 ASSPTGGSPSPLH | 6.69 |
| […] (CDR3 as printed); L12A derived by comparing it with the table's wild-type CDR3 ASSPTGGSPSPLH | 0 |
| […] (CDR3 as printed); L12C derived by comparing it with the table's wild-type CDR3 ASSPTGGSPSPLH | 4.3 |
| […] (CDR3 as printed); L12D derived by comparing it with the table's wild-type CDR3 ASSPTGGSPSPLH | 0 |
| […] (CDR3 as printed); L12E derived by comparing it with the table's wild-type CDR3 ASSPTGGSPSPLH | 0 |
| […] (CDR3 as printed); L12F derived by comparing it with the table's wild-type CDR3 ASSPTGGSPSPLH | 0 |
| […] (CDR3 as printed); L12G derived by comparing it with the table's wild-type CDR3 ASSPTGGSPSPLH | 0 |
| […] (CDR3 as printed); L12H derived by comparing it with the table's wild-type CDR3 ASSPTGGSPSPLH | 0 |
| […] (CDR3 as printed); L12I derived by comparing it with the table's wild-type CDR3 ASSPTGGSPSPLH | 1.14 |
